{"source": "patent US20060121047A1", "about": "“Use of hmgb polypetides for increasing immune responses” (priority 2002, published 2006)", "molecules": {"B1": {"name": "B box: Recombinant GST-system human HMGB1 mutant containing only the B box, 74 amino acids, SEQ ID NO: 20 (protein, listed as Homo sapiens)", "chain": "FKDPNAPKRLPSAFFLFCSEYRPKIKGEHPGLSIGDVAKKLGEMWNNTAADDKQPYEKKAAKLKEKYEKDIAAY", "modifications": "GST system"}}, "key": {"[1]": {"test_system": "Murine macrophage-like RAW 264.7 cells", "test": "TNF release from RAW 264.7 cells (L929 cytotoxicity bioassay)", "assay_type": "cell-based", "settings": "for TNF release, dose dependence: B box 0-10 μg/ml, 8 hours (FIG. 2A)", "experimental": "Murine macrophage-like RAW 264.7 cells (American Type Culture Collection, Rockville, Md.) were cultured in RPMI 1640 medium (Life Technologies, Grand Island N.Y.) supplemented with 10% fetal bovine serum (Gemini, Catabasas, Calif.), penicillin and streptomycin (Life Technologies) and were used at 90% confluence in serum-free Opti-MEM I medium (Life Technologies, Grand Island, N.Y.). […] Polymyxin B was not used in experiments of synthetic peptide studies.\nTNF release was measured by a standard murine fibroblast L929 (ATCC, American Type Culture Collection, Rockville, Md.) cytotoxicity bioassay (Bianchi et al., Journal of Experimental Medicine 183:927-936, 1996) with the minimum detectable concentration of 30 pg/ml. Recombinant mouse TNF was obtained from R&D system Inc., (Minneapolis, MN). Murine fibroblast L929 cells (ATCC) were cultured in DMEM (Life Technologies, Grand Island, N.Y.) supplemented with 10% fetal bovine serum (Gemini, Catabasas, Calif.), penicillin (50 units/ml) and streptomycin (50 μg/ml) (Life Technologies) in a humidified incubator with 5% CO2.\nThe effect of the mutants on TNF release from Murine macrophage-like RAW 264.7 cells (ATCC) was carried out as follows. RAW 264.7 cells were cultured in RPMI 1640 medium (Life Technologies, Grand Island N.Y.) supplemented with 10% fetal bovine serum (Gemini, Catabasas, Calif.), penicillin and streptomycin (Life Technologies). Polymyxin (Sigma, St. Louis, Mo.) was added at 100 units/ml to suppress the activity of any contaminating LPS. Cells were incubated with 1 μg/ml of full length (wild-type) HMGB1 and each HMGB1 mutant protein in Opti-MEM I medium for 8 hours, and conditioned supernatants (containing TNF which had been released from the cells) were collected and TNF released from the cells was measured by a standard murine fibroblast L929 (ATCC) cytotoxicity bioassay (Bianchi et al., supra) with the minimum detectable concentration of 30 pg/ml. Recombinant mouse TNF was obtained from R & D Systems Inc., (Minneapolis, Minn.) and used as control in these experiments. Data in FIG. 1 are all presented as mean+SEM unless otherwise indicated. (=6−10).\nTo further examine the effect of HMGB1 B box on cytokine production, varying amounts of HMGB1 B box were evaluated for the effects on TNF, IL-1B, and IL-6 production in murine macrophage-like RAW 264.7 cells. Conditioned media were harvested and measured for TNF, IL-1β and IL-6 levels. TNF levels were measured as described herein, and IL-1β and IL-6 levels were measured using the mouse IL-1β and IL-6 enzyme-linked immunosorbent assay (ELISA) kits (R&D System Inc., Minneapolis, 1) and N>5 for all experiments.\nThe kinetics of B box-induced TNF release was also examined. TNF release and TNF mRNA expression was measured in RAW 264.7 cells induced by B box polypeptide or GST tag polypeptide only used as a control (vector) (10 μg/ml) for 0 to 48 hours. Supernatants were analyzed for TNF protein levels by an L929 cytotoxicity assay (N=3-5) as described herein. For mRNA measurement, cells were plated in 100 mm plate and treated in Opti-MEM I medium containing B box polypeptide or the vector alone for 0, 4, 8, or 24 hours, as indicated in FIG. 2D. The vector only sample was assayed at the 4 hour time point. Cells were scraped off the plate and total RNA was isolated by RNAzol B method in accordance with the manufacturer's instructions (Tel-Test “B”, Inc., Friendswood, Tex.). TNF (287 bp) was measured by RNase protection assay (Ambion, Austin, Tex.). Equal loading and the integrity of RNA was verified by ethidium bromide staining of the RNA sample on agarose-formaldehyde gel. […] TNF mRNA expression was maximal at 4 hours and decreased at 8 and 24 hours. […] A similar study was carried out measuring TNF protein released from RAW 264.7 cells 0, 4, 8, 24, 32 or 48 hours after administration of B box or vector only (GST tag), using the L929 cytotoxicity assay described herein. […] Data are representative of three separate experiments. […]"}, "[2]": {"test_system": "RAW 264.7 cells", "test": "TNF mRNA expression in RAW 264.7 cells (RNase protection assay)", "assay_type": "cell-based, murine", "settings": "10 μg/ml", "experimental": "The kinetics of B box-induced TNF release was also examined. TNF release and TNF mRNA expression was measured in RAW 264.7 cells induced by B box polypeptide or GST tag polypeptide only used as a control (vector) (10 μg/ml) for 0 to 48 hours. Supernatants were analyzed for TNF protein levels by an L929 cytotoxicity assay (N=3-5) as described herein. For mRNA measurement, cells were plated in 100 mm plate and treated in Opti-MEM I medium containing B box polypeptide or the vector alone for 0, 4, 8, or 24 hours, as indicated in FIG. 2D. The vector only sample was assayed at the 4 hour time point. Cells were scraped off the plate and total RNA was isolated by RNAzol B method in accordance with the manufacturer's instructions (Tel-Test “B”, Inc., Friendswood, Tex.). TNF (287 bp) was measured by RNase protection assay (Ambion, Austin, Tex.). Equal loading and the integrity of RNA was verified by ethidium bromide staining of the RNA sample on agarose-formaldehyde gel. […] TNF mRNA expression was maximal at 4 hours and decreased at 8 and 24 hours. […] A similar study was carried out measuring TNF protein released from RAW 264.7 cells 0, 4, 8, 24, 32 or 48 hours after administration of B box or vector only (GST tag), using the L929 cytotoxicity assay described herein. […] Data are representative of three separate experiments."}}, "data": [{"molecule": "B1", "values": [{"measurement": "TNF release", "setting": "[1]; 1 μg/ml protein, 8 hours, RAW 264.7 cells (FIG. 1)", "value": "potent activator of monocyte TNF release"}, {"measurement": "time of maximum TNF protein release", "setting": "[1]; 10 μg/ml", "value": "≤ 8", "unit": "h"}, {"measurement": "TNF protein expression/release versus medium only", "setting": "[1]; 10 μg/ml, 0 to 48 hours", "value": "stimulated TNF protein expression"}, {"measurement": "TNF release, dose dependence", "setting": "[1]", "value": "increased with increased amounts of B box"}, {"measurement": "TNF release, dose dependence", "setting": "[1]; listed as HMGB1 B box", "value": "dose-dependently stimulated release"}, {"measurement": "time of maximal TNF mRNA expression", "setting": "[2]", "value": 4, "unit": "h"}, {"measurement": "TNF mRNA expression", "setting": "[2]; 0, 4, 8 or 24 hours (vector at 4 hours) (FIG. 2D)", "value": "increased significantly"}]}]}
